Results taken from patent publication US6509447B1, “G protein chimeras and methods of screening compounds” (Glaxo Welcome Inc., priority 1997, dated 2003).

Experiments:
Format in all cases: cell-based
serotonin 5HT1A receptor [1] = target: T1, serotonin 5HT1A receptor (Homo sapiens, UniProt P08908); experiment: CPRG assay, MMY11 cells expressing 5-HT1A receptor plus Gα subunit; design: key: weak activation insufficient to carry out curve-fitting was detected; NC: no coupling was detected
T1 construct: expressed in transfected cells; host or cells: Saccharomyces cerevisiae strains MMY9 and MMY11, plasmid pDT-PGK-5-HT1A
T1 sequence (P08908 1-422): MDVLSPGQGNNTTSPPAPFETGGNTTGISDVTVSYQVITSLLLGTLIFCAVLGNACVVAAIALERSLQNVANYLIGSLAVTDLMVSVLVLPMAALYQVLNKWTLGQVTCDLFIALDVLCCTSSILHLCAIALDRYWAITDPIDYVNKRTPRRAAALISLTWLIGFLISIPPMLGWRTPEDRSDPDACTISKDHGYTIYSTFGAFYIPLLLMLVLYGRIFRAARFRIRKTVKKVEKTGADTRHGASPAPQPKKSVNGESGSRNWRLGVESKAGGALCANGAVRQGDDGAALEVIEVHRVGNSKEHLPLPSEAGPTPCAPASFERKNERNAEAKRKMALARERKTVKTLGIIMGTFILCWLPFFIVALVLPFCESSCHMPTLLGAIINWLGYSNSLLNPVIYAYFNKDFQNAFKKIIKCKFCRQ
Description: (§1) Assay for combined FUS1-lacZ and FUS1-HIS3 Expression. In vivo assays of reporter gene induction (CPRG assays) were carried out by suspending cells to 0.02 OD600 in 200 μl SC-glucose (2%) lacking tryptophan, uracil and histidine. This medium was supplemented with agonists, and additionally 10 mM 3-aminotriazole and the β-galactosidase (lacZ) substrate chlorophenolred-β-D-galactopyranoside (CPRG; Boehringer) to a concentration of 0.1 mg/ml. To visualise the colour change reaction, the medium was buffered to pH 7 with 0.1 M sodium phosphate. The assay was conducted in a 96-well microtitre plate format. Plates were incubated for 24 hours without agitation, and absorbance at 570 nm was determined using a Victor microtitre plate reader (Wallac). EC50 values (+/−standard error) were estimated by curve-fitting, using the Robosage software package.
(§2) MMY11 was used in an experiment in which cells were transformed with pairs of plasmids as before, one to express a Gα subunit and the other a receptor expression construct. […] Where pheromone response pathway activation was detected, the agonist concentration required to yield a half-maximal response (EC50+/−standard error; all values in nM except where otherwise indicated) was determined by curve-fitting, and is shown in Table 4A. Where no coupling was detected, this is also indicated (NC).

melatonin ML1B receptor = target: T2, melatonin ML1B receptor (Homo sapiens, UniProt P49286); experiment: Reverse halo assay for FUS1-HIS3 expression, MMY9 cells, ML1B; settings: MMY9 cells with pRS314-GPA1 and ML1B receptor, 40 nmol melatonin
T2 construct: expressed in transfected cells; host or cells: Saccharomyces cerevisiae strains MMY9 and MMY11, plasmid pDT-PGK-ML1B
T2 sequence (P49286 1-362): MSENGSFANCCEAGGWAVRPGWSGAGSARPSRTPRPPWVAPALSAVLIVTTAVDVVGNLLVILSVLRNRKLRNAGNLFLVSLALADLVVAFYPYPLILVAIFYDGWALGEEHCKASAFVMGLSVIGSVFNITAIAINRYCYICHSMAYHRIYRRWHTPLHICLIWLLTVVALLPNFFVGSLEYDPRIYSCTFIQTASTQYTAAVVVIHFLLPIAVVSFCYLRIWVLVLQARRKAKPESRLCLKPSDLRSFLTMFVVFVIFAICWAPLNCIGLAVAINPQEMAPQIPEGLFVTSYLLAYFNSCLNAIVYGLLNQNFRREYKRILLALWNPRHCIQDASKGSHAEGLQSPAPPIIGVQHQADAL
Description: (§3) Assay for FUS1-HIS3 Expression. Reverse halo assays were carried out by growing MMY9 cells to early stationary phase (OD600≈4) in liquid SC-glucose (2%) medium lacking tryptophan and uracil. A uniform layer of cells (5×10^7) was plated to 22.5 cm by 22.5 cm bioassay dishes (Nunc) in 100 ml SC-glucose agar (1%) equilibrated to 50° C. This medium lacked tryptophan, uracil and histidine, and was supplemented with 10 mM 3-aminotriazole, and buffered to pH 7.0 with 0.1M sodium phosphate. Antibiotic discs were placed on the solidified agar, and a volume of agonist solution (1-5 μl) was applied to each disc. Plates were incubated at 30° C. for 3 days.
(§4) The four receptors were: the melatonin ML1B receptor, the serotonin 5HT1A receptor, the somatostatin SST2 receptor and the purinergic nucleotide receptor, P2Y2. […] Activation of the pheromone response pathway was monitored with two integrated reporter genes: […] allowing a growth readout in medium lacking histidine, and FUS1-lacZ allowing a β-galactosidase readout. […] Agonist-dependent activation of FUS1-HIS3 was determined by reverse halo assay in which agonists were applied to the filter discs in the arrangement shown in panel A, in quantities as follows: 3 nmol of somatostatin-14 (S-14); 40 nmol of melatonin (Mel); 3 nmol of α-factor; 100 nmol of UTP; 40 nmol of serotonin (5-HT). […]

serotonin 5HT1D receptor = target: T3, serotonin 5HT1D receptor (Homo sapiens, UniProt P28221); experiment: CPRG assay, MMY11 cells expressing 5-HT1D receptor plus Gα subunit; design: key: weak activation insufficient to carry out curve-fitting was detected; NC: no coupling was detected
T3 construct: expressed in transfected cells; host or cells: Saccharomyces cerevisiae strain MMY11, plasmid pDT-PGK-5-HT1D
T3 sequence (P28221 whole entry): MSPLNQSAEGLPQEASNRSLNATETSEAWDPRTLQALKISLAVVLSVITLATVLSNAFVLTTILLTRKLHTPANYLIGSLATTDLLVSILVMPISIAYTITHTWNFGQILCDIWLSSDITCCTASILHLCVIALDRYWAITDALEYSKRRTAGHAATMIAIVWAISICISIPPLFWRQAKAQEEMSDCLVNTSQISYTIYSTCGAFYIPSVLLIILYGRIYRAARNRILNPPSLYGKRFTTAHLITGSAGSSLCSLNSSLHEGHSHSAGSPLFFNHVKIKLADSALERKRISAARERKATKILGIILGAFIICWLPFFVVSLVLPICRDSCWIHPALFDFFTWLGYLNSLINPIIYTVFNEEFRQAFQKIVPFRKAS
Description: as §1, §2

serotonin 5HT1A receptor [2] = target: T1, serotonin 5HT1A receptor; experiment: Reverse halo assay for FUS1-HIS3 expression, MMY9 cells, 5-HT1A; settings: MMY9 cells with pRS314-GPA1 and 5-HT1A receptor, 40 nmol serotonin
Description: as §3, §4

B1: Gpa1p: endogenous yeast Gα subunit, product of the GPA1 gene (protein, UniProt P08539 2-472, looked up)
Guanine nucleotide-binding …: GCTVSTQTIGDESDPFLQNKRANDVIEQSLQLEKQRDKNEIKLLLLGAGESGKSTVLKQLKLLHQGGFSHQERLQYAQVIWADAIQSMKILIIQARKLGIQLDCDDPINNKDLFACKRILLKAKALDYINASVAGGSDFLNDYVLKYSERYETRRRVQSTGRAKAAFDEDGNISNVKSDTDRDAETVTQNEDADRNNSSRINLQDICKDLNQEGDDQMFVRKTSREIQGQNRRNLIHEDIAKAIKQLWNNDKGIKQCFARSNEFQLEGSAAYYFDNIEKFASPNYVCTDEDILKGRIKTTGITETEFNIGSSKFKVLDAGGQRSERKKWIHCFEGITAVLFVLAMSEYDQMLFEDERVNRMHESIMLFDTLLNSKWFKDTPFILFLNKIDLFEEKVKSMPIRKYFPDYQGRVGDAEAGLKYFEKIFLSLNKTNKPIYVKRTCATDTQTMKFVLSAVTDLIIQQNLKKIGII
coupling class where no EC50 could be fitted (serotonin 5HT1A receptor [1]): weak
agonist-dependent activation of FUS1-HIS3 (halo of cell growth) (melatonin ML1B receptor): activated FUS1-HIS3 in response to melatonin
coupling class where no EC50 could be fitted (serotonin 5HT1D receptor): NC
agonist-dependent activation of FUS1-HIS3 (halo of cell growth) (serotonin 5HT1A receptor [2]): did not activate FUS1-HIS3 in response to the agonist serotonin
